Data as given in IntAct's records for PubMed 35512704.

B1: Speckle-type POZ protein (Homo sapiens), O43791 (parent)
chain: MSRVPSPPPPAEMSSGPVAESWCYTQIKVVKFSYMWTINNFSFCREEMGEVIKSSTFSSGANDKLKWCLRVNPKGLDEESKDYLSLYLLLVSCPKSEVRAKFKFSILNAKGEETKAMESQRAYRFVQGKDWGFKKFIRRDFLLDEANGLLPDDKLTLFCEVSVVQDSVNISGQNTMNMVKVPECRLADELGGLWENSRFTDCCLCVAGQEFQAHKAILAARSPVFSAMFEHEMEESKKNRVEINDVEPEVFKEMMCFIYTGKAPNLDKMADDLLAAADKYALERLKVMCEDALCSNLSVENAAEILILADLHSADQLKTQAVDFINYHASDVLETSGWKSMVVSHPHLVAEAYRSLASAQCPFLGPPRKRLKQS
partner: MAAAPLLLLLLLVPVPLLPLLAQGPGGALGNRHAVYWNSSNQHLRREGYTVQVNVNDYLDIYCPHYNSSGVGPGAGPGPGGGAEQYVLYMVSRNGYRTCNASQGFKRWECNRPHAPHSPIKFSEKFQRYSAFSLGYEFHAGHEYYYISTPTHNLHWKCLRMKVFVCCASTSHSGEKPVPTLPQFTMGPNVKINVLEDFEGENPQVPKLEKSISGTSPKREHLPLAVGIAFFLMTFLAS
B2: Speckle-type POZ protein (Homo sapiens), O43791 (parent)
chain: B1 chain
partner: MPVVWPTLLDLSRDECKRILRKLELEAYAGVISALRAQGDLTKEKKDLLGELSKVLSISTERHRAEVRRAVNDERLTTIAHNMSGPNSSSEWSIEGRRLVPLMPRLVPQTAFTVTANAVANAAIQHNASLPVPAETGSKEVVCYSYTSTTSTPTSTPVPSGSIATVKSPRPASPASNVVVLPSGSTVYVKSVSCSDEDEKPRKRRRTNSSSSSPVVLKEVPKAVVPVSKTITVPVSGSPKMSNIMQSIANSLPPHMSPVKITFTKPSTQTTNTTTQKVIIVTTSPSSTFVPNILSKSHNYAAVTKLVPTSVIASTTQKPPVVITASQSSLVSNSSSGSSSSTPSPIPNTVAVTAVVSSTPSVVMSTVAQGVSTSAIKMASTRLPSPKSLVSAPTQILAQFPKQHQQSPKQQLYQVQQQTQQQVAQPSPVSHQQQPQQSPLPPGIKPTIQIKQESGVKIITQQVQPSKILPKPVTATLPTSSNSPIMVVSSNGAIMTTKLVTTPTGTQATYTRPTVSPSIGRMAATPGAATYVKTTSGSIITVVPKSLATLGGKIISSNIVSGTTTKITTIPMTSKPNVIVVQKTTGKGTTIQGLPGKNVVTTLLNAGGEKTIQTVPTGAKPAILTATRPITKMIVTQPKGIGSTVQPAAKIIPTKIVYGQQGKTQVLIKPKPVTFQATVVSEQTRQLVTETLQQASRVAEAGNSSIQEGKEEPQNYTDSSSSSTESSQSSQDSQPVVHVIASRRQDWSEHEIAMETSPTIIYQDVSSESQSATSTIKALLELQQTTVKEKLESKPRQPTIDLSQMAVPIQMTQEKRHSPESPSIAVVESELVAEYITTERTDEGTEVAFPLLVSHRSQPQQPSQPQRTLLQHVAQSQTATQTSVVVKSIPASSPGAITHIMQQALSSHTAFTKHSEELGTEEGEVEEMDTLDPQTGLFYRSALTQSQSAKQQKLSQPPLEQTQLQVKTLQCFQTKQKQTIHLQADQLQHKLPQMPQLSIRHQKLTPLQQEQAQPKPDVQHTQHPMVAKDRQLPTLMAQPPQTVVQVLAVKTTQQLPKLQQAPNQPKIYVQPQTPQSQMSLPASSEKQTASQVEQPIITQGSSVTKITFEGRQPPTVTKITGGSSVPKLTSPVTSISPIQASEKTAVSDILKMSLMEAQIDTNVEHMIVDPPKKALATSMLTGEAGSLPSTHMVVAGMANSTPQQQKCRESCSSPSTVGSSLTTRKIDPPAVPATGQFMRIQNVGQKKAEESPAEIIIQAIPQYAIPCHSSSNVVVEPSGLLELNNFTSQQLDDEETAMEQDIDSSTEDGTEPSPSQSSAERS
B3: Speckle-type POZ protein (Homo sapiens), O43791 (parent)
chain: B1 chain
partner: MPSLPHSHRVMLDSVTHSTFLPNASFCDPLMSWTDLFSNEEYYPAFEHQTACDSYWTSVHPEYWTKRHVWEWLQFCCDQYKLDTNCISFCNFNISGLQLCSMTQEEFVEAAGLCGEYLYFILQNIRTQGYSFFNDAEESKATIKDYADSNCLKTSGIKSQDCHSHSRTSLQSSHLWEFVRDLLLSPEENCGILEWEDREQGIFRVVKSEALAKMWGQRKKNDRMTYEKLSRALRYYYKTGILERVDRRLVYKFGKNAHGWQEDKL

Variants of: B1
Details: with efna3_human EFNA3, P52797

Row | Variant | effect of a mutation on the interaction
1 | MSRVPSPPPPAEMSSGPVAESWCYTQIKVVKFSYMWTINNFSFCREEMGEVIKSSTFSSGANDKLKWCLRVNPKGLDEESKDYLSLYLLLVSCPKSEVRAKCKFSILNAKGEETKAMESQRAYRFVQGKDWGFKKFIRRDFLLDEANGLLPDDKLTLFCEVSVVQDSVNISGQNTMNMVKVPECRLADELGGLWENSRFTDCCLCVAGQEFQAHKAILAARSPVFSAMFEHEMEESKKNRVEINDVEPEVFKEMMCFIYTGKAPNLDKMADDLLAAADKYALERLKVMCEDALCSNLSVENAAEILILADLHSADQLKTQAVDFINYHASDVLETSGWKSMVVSHPHLVAEAYRSLASAQCPFLGPPRKRLKQS [F102C] | with no effect

Variants of: B1
Details: with efna3_human EFNA3, P52797
Remark: another data set of the same source

Row | Variant | effect of a mutation on the interaction
2 | MSRVPSPPPPAEMSSGPVAESWCYTQIKVVKFSYMWTINNFSFCREEMGEVIKSSTFSSGANDKLKWCLRVNPKGLDEESKDYLSLCLLLVSCPKSEVRAKFKFSILNAKGEETKAMESQRAYRFVQGKDWGFKKFIRRDFLLDEANGLLPDDKLTLFCEVSVVQDSVNISGQNTMNMVKVPECRLADELGGLWENSRFTDCCLCVAGQEFQAHKAILAARSPVFSAMFEHEMEESKKNRVEINDVEPEVFKEMMCFIYTGKAPNLDKMADDLLAAADKYALERLKVMCEDALCSNLSVENAAEILILADLHSADQLKTQAVDFINYHASDVLETSGWKSMVVSHPHLVAEAYRSLASAQCPFLGPPRKRLKQS [Y87C] | with no effect

Variants of: B2
Details: with emsy_human EMSY

Row | Variant | effect of a mutation on the interaction
3 | MSRVPSPPPPAEMSSGPVAESWCYTQIKVVKFSYMWTINNFSFCREEMGEVIKSSTFSSGANDKLKWCLRVNPKGLDEESKDYLSLYLLLVSCPKSEVRAKCKFSILNAKGEETKAMESQRAYRFVQGKDWGFKKFIRRDFLLDEANGLLPDDKLTLFCEVSVVQDSVNISGQNTMNMVKVPECRLADELGGLWENSRFTDCCLCVAGQEFQAHKAILAARSPVFSAMFEHEMEESKKNRVEINDVEPEVFKEMMCFIYTGKAPNLDKMADDLLAAADKYALERLKVMCEDALCSNLSVENAAEILILADLHSADQLKTQAVDFINYHASDVLETSGWKSMVVSHPHLVAEAYRSLASAQCPFLGPPRKRLKQS [F102C] | with no effect

Variants of: B2
Details: with emsy_human EMSY
Remark: another data set of the same source

Row | Variant | effect of a mutation on the interaction
4 | MSRVPSPPPPAEMSSGPVAESWCYTQIKVVKFSYMWTINNFSFCREEMGEVIKSSTFSSGANDKLKWCLRVNPKGLDEESKDYLSLYLLLVSCPKSEVRAKFKFSILNAKGEETKAMESQRAYRFVQGKDWGLKKFIRRDFLLDEANGLLPDDKLTLFCEVSVVQDSVNISGQNTMNMVKVPECRLADELGGLWENSRFTDCCLCVAGQEFQAHKAILAARSPVFSAMFEHEMEESKKNRVEINDVEPEVFKEMMCFIYTGKAPNLDKMADDLLAAADKYALERLKVMCEDALCSNLSVENAAEILILADLHSADQLKTQAVDFINYHASDVLETSGWKSMVVSHPHLVAEAYRSLASAQCPFLGPPRKRLKQS [F133L] | with no effect

Variants of: B3
Details: with elf5_human ELF5, Q9UKW6

Row | Variant | effect of a mutation on the interaction
5 | MSRVPSPPPPAEMSSGPVAESWCYTQIKVVKFSYMWTINNFSFCREEMGEVIKSSTFSSGANDKLKWCLRVNPKGLDEESKDYLSLYLLLVSCPKSEVRAKFKFSILNAKGEETKAMESQRAYRFVQGKDWGVKKFIRRDFLLDEANGLLPDDKLTLFCEVSVVQDSVNISGQNTMNMVKVPECRLADELGGLWENSRFTDCCLCVAGQEFQAHKAILAARSPVFSAMFEHEMEESKKNRVEINDVEPEVFKEMMCFIYTGKAPNLDKMADDLLAAADKYALERLKVMCEDALCSNLSVENAAEILILADLHSADQLKTQAVDFINYHASDVLETSGWKSMVVSHPHLVAEAYRSLASAQCPFLGPPRKRLKQS [F133V] | with no effect

Variants of: B3
Details: with elf5_human ELF5, Q9UKW6
Remark: another data set of the same source

Row | Variant | effect of a mutation on the interaction
6 | MSRVPSPPPPAEMSSGPVAESWCYTQIKVVKFSYMWTINNFSFCREEMGEVIKSSTFSSGANDKLKWCLRVNPKGLDEESKDYLSLYLLLVSCPKSEVRAKFKFSILNAKGEETKAMESQRAYRFVQGKDWGLKKFIRRDFLLDEANGLLPDDKLTLFCEVSVVQDSVNISGQNTMNMVKVPECRLADELGGLWENSRFTDCCLCVAGQEFQAHKAILAARSPVFSAMFEHEMEESKKNRVEINDVEPEVFKEMMCFIYTGKAPNLDKMADDLLAAADKYALERLKVMCEDALCSNLSVENAAEILILADLHSADQLKTQAVDFINYHASDVLETSGWKSMVVSHPHLVAEAYRSLASAQCPFLGPPRKRLKQS [F133L] | with no effect

Variants of: B3
Details: with elf5_human ELF5, Q9UKW6
Remark: another data set of the same source

Row | Variant | effect of a mutation on the interaction
7 | MSRVPSPPPPAEMSSGPVAESWCYTQIKVVKFSYMWTINNFSFCREEMGEVIKSSTFSSGANDKLKWCLRVNPKGLDEESKDYLSLCLLLVSCPKSEVRAKFKFSILNAKGEETKAMESQRAYRFVQGKDWGFKKFIRRDFLLDEANGLLPDDKLTLFCEVSVVQDSVNISGQNTMNMVKVPECRLADELGGLWENSRFTDCCLCVAGQEFQAHKAILAARSPVFSAMFEHEMEESKKNRVEINDVEPEVFKEMMCFIYTGKAPNLDKMADDLLAAADKYALERLKVMCEDALCSNLSVENAAEILILADLHSADQLKTQAVDFINYHASDVLETSGWKSMVVSHPHLVAEAYRSLASAQCPFLGPPRKRLKQS [Y87C] | with no effect

Variants of: B3
Details: with elf5_human ELF5, Q9UKW6
Remark: another data set of the same source

Row | Variant | effect of a mutation on the interaction
8 | MSRVPSPPPPAEMSSGPVAESWCYTQIKVVKFSYMWTINNFSFCREEMGEVIKSSTFSSGANDKLKWCLRVNPKGLDEESKDYLSLYLLLVSCPKSEVRAKCKFSILNAKGEETKAMESQRAYRFVQGKDWGFKKFIRRDFLLDEANGLLPDDKLTLFCEVSVVQDSVNISGQNTMNMVKVPECRLADELGGLWENSRFTDCCLCVAGQEFQAHKAILAARSPVFSAMFEHEMEESKKNRVEINDVEPEVFKEMMCFIYTGKAPNLDKMADDLLAAADKYALERLKVMCEDALCSNLSVENAAEILILADLHSADQLKTQAVDFINYHASDVLETSGWKSMVVSHPHLVAEAYRSLASAQCPFLGPPRKRLKQS [F102C] | with no effect
